According to paper doi:10.1101/2022.10.05.510932 (bioRxiv, 2022):

Legend:
[1] = molecular target: the molecule itself; test: cryo-EM structure
[2] = molecular target: the molecule itself; test: crystal structure

Protein	binding result [1]	binding result [2]
FtsZ from Klebsiella pneumoniae, full length, tag removed (natural protein, UniProt W9BCK7 1-383, looked up) MFEPMELTNDAVIKVIGVGGGGGNAVEHMVRERIEGVEFFAVNTDAQALRKTAVGQTIQIGSGITKGLGAGANPEVGRNAADEDREALRAALDGADMVFIAAGMGGGTGTGAAPVVAEVAKDLGILTVAVVTKPFNFEGKKRMAFAEQGITELSKHVDSLITIPNDKLLKVLGRGISLLDAFGAANDVLKGAVQGIAELITRPGLMNVDFADVRTVMSEMGYAMMGSGVASGEDRAEEAAEMAISSPLLEDIDLSGARGVLVNITAGFDLRLDEFETVGNTIRAFASDNATVVIGTSLDPDMNDELRVTVVATGIGMDKRPEITLVTNKQVQQPVMDRYQQHGMSPLTQEQKPAAKVVNDNTPQTAKEPDYLDIPAFLRKQAD	binds	–
truncated KpFtsZ (residues 11-316) (domain or fragment, Klebsiella pneumoniae, UniProt W9BCK7 11-316, looked up) AVIKVIGVGGGGGNAVEHMVRERIEGVEFFAVNTDAQALRKTAVGQTIQIGSGITKGLGAGANPEVGRNAADEDREALRAALDGADMVFIAAGMGGGTGTGAAPVVAEVAKDLGILTVAVVTKPFNFEGKKRMAFAEQGITELSKHVDSLITIPNDKLLKVLGRGISLLDAFGAANDVLKGAVQGIAELITRPGLMNVDFADVRTVMSEMGYAMMGSGVASGEDRAEEAAEMAISSPLLEDIDLSGARGVLVNITAGFDLRLDEFETVGNTIRAFASDNATVVIGTSLDPDMNDELRVTVVATGIG	–	binds
